Experiment [1] addresses human Y4 receptor (P50391, NPY4R_HUMAN, Uniprot) (human) (UniProt P50391). As to the kind of experiment: ratio of SPA values, Y2 as reference.
Experiment [2] concerns the target T1, human Y1 receptor (P25929, NPY1R_HUMAN, Uniprot) (human, UniProt P25929 1-384).
T1 construct: whole, on cells; Assayed as membrane preparations of the expressing cells; also called NPY-Y1 receptor
T1 sequence (looked up): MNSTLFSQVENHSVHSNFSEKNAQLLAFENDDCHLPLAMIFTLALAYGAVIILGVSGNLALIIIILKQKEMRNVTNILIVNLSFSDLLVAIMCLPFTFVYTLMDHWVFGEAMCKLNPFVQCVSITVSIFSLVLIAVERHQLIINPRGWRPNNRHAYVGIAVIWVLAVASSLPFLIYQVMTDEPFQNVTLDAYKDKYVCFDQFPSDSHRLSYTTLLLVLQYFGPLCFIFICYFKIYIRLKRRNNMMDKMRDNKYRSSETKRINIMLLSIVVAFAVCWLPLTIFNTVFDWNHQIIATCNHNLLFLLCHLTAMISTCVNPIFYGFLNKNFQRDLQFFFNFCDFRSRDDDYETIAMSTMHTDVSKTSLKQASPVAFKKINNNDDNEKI
The experiment is described as follows: SPA vs [125I]-PYY(1-36).
Experimental: (§1) Human Y receptor SPA binding assay were performed in white 96-well plates in a total volume of 200 μl per well.
(§2) Plates were sealed and incubated at +25° C. for 2 hours in a plate shaker set at 400 rpm and thereafter centrifuged at 1500 rpm for 10 minutes prior to reading of luminescence on a microplate scintillation and luminescence counter.

The target in experiment [3] is T2, human Y4 receptor (P50391, NPY4R_HUMAN, Uniprot) (human, UniProt P50391 1-375).
T2 construct: whole, on cells; Assayed as membrane preparations of the expressing cells
T2 sequence (P50391 whole entry): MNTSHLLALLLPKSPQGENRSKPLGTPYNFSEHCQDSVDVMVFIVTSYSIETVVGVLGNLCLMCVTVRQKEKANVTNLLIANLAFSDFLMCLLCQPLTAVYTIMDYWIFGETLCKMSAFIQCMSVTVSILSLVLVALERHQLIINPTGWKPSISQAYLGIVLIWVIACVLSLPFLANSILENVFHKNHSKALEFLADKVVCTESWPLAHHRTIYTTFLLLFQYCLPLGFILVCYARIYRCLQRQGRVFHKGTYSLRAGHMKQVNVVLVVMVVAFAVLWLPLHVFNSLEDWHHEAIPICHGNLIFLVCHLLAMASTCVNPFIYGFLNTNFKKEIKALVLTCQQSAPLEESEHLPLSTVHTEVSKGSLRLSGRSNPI
As to the kind of experiment: SPA vs [125I]-PP.
Experimental: as §1, §2

Experiment [4] deals with T3, human Y5 receptor (Q15761, NPY5R_HUMAN, Uniprot) (human, UniProt Q15761 1-445).
T3 construct: whole, on cells; Assayed as membrane preparations of the expressing cells
T3 sequence (looked up): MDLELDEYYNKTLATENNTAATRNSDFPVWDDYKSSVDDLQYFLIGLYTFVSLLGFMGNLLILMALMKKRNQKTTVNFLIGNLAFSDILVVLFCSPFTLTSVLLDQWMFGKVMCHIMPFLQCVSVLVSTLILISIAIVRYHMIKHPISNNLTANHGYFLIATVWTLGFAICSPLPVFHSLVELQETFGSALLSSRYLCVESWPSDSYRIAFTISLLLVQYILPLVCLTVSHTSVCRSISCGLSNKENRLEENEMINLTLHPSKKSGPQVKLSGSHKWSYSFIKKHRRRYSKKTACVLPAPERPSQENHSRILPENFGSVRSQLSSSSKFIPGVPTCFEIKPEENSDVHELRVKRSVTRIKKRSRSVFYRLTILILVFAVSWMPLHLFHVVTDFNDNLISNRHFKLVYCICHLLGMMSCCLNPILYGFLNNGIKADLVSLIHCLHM
As to the kind of experiment: SPA vs [125I]-PYY(1-36).
Experimental: as §1, §2

The target in experiment [5] is T4, human Y2 receptor (P49146, NPY2R_HUMAN, Uniprot) (human, UniProt P49146 1-381).
T4 construct: whole, on cells; also called human NPY Y2 receptor
T4 sequence (looked up): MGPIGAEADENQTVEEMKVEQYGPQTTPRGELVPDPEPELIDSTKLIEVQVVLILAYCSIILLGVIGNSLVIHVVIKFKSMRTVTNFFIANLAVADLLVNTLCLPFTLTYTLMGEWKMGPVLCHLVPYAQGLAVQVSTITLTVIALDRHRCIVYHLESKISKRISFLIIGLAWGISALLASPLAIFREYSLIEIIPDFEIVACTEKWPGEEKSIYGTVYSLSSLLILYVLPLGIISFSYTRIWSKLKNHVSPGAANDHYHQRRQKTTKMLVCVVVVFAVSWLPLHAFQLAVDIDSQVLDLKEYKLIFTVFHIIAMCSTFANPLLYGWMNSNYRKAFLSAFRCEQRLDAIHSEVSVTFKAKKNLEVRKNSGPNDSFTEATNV
As to the kind of experiment: SPA vs [125I]-PYY(1-36).
Experimental: as §1, §2

Experiment [6] concerns the target T4, human Y2 receptor (P49146, NPY2R_HUMAN, …). The experiment is described as follows: cell-based or functional assay.
Experiment [7] concerns the target T2, human Y4 receptor (P50391, NPY4R_HUMAN, …). As to the kind of experiment: ratio of SPA values, Y2 as reference.
Experimental: as §1, §2
Experiment [8] deals with T3, human Y5 receptor (Q15761, NPY5R_HUMAN, …). As to the kind of experiment: ratio of SPA values, Y2 as reference.
Experimental: as §1, §2

The record followed here is patent US20170313750A1 (Novo Nordisk, published 2017).

Numbered stars: 1 amine (or outer) side, 2 acyl side, 3 side chain; on linkers, the order of the positions; unused ones are H or OH. Side chains are listed from the residue outwards. * marks the point of attachment. C18 diacid = O=C(O)CCCCCCCCCCCCCCCCC(=O)*; γGlu = O=C(O)[C@H](CCC(=O)[*:2])N[*:1]; Isovaleryl = CC(C)CC(=O)*; AEEA = NCCOCCOCC(=O)O A value given as a limit tells only on which side of the number the result lay.

human Y4 receptor (P50391, NPY4R_HUMAN, Uniprot) (human), sequence (P50391 whole entry): as the sequence (P50391 whole entry) above

Regarding “N{alpha-4}-(3-Methylbutanoyl)-N{Epsilon-7}-[2-[2-[2-[[2-[2-[2-[[2-[2-[2-[[2-[2-[2-[[(4S)-4-carboxy-4-(17-carboxyheptadecanoylamino)butanoyl]amino]-ethoxy]ethoxy]acetyl]amino]ethoxy]ethoxy]acetyl]amino]ethoxy]ethoxy]acetyl]amino]ethoxy]ethoxy]acetyl]-[Arg4,Lys7,Pro9,Gln18,Tyr28,Trp30,Leu31]-PYY(4-36) (peptide)”, in experiment [1], the Ratio of Y4/Y2 SPA binding values is above 18300.

B1: N{alpha-4}-(3-Methylbutanoyl)-N{Epsilon-7}-[2-[2-[2-[[2-[2-[2-[[(4S)-4-carboxy-4-(17-carboxyheptadecanoylamino)butanoyl]amino]ethoxy]ethoxy]acetyl]amino]-ethoxy … (peptide)
peptide: RPEKPTEDASPEELQRYYASLRHYYNWLTRQRY
modifications: N-terminal alpha-amino (position 4): 3-methylbutanoyl; Lys7 (hPYY(1-36) numbering) epsilon-amino: [2-[2-[2-[[2-[2-[2-[[(4S)-4-carboxy-4-(17-carboxyheptadecanoylamino)butanoyl]amino]ethoxy]ethoxy]acetyl]amino]ethoxy]ethoxy]acetyl]; C-terminal amide
notes: also called Compound 14; 14
B1: affinity in experiment [2] was put at a Ki of 8820 nM.
For the molecule Isovaleryl-RPEAPPK([γGlu-AEEA-γGlu-C18 diacid])DASPEELQRYYESLRHYYNWLTRQRY-NH2 (also called Compound 54; 54), the inhibition constant Ki in experiment [3] turned out to be 5910 nM; in experiment [4] it was 254 nM; in experiment [2], 2420 nM; in experiment [5], 3.1 nM. The “Y2 EC50, Actone functional potency assay” value in experiment [6] was 1.6 nM.

B2: N{alpha-4}-(3-Methylbutanoyl)-N{Epsilon-10}-[2-[2-[2-[[2-[2-[2-[[(4S)-4-carboxy-4-(17-carboxyheptadecanoylamino)butanoyl]amino]ethoxy]ethoxy]acetyl]-amino]ethox … (peptide)
peptide: Isovaleryl-RPEAPGK([AEEA-AEEA-γGlu-C18 diacid])DASPEELQRYYESLRHYYNWLTRQRY-NH2
SMILES: CC(C)CC(=O)N[C@@H](CCCNC(=N)N)C(=O)N1CCC[C@H]1C(=O)N[C@@H](CCC(=O)O)C(=O)N[C@@H](C)C(=O)N1CCC[C@H]1C(=O)NCC(=O)N[C@@H](CCCCNC(=O)COCCOCCNC(=O)COCCOCCNC(=O)CC[C@H](NC(=O)CCCCCCCCCCCCCCCCC(=O)O)C(=O)O)C(=O)N[C@@H](CC(=O)O)C(=O)N[C@@H](C)C(=O)N[C@@H](CO)C(=O)N1CCC[C@H]1C(=O)N[C@@H](CCC(=O)O)C(=O)N[C@@H](CCC(=O)O)C(=O)N[C@@H](CC(C)C)C(=O)N[C@@H](CCC(N)=O)C(=O)N[C@@H](CCCNC(=N)N)C(=O)N[C@@H](Cc1ccc(O)cc1)C(=O)N[C@@H](Cc1ccc(O)cc1)C(=O)N[C@@H](CCC(=O)O)C(=O)N[C@@H](CO)C(=O)N[C@@H](CC(C)C)C(=O)N[C@@H](CCCNC(=N)N)C(=O)N[C@@H](Cc1c[nH]cn1)C(=O)N[C@@H](Cc1ccc(O)cc1)C(=O)N[C@@H](Cc1ccc(O)cc1)C(=O)N[C@@H](CC(N)=O)C(=O)N[C@@H](Cc1c[nH]c2ccccc12)C(=O)N[C@@H](CC(C)C)C(=O)N[C@H](C(=O)N[C@@H](CCCNC(=N)N)C(=O)N[C@@H](CCC(N)=O)C(=O)N[C@@H](CCCNC(=N)N)C(=O)N[C@@H](Cc1ccc(O)cc1)C(N)=O)[C@@H](C)O
notes: also called Compound 51; 51
On to B2, for which the “Ratio of Y4/Y2 EC50 values” in experiment [7] is above 4350. The “Ratio of Y5/Y2 EC50 values” in experiment [8] stood at 50. The Ki in experiment [4] stood at 116 nM; in experiment [2], 2400 nM; in experiment [5] it was 2.3 nM. Also, the “Y2 EC50, Actone functional potency assay” value in experiment [6] stood at 0.99 nM.
